Measured values published in publication PMC5481817, “Developing Targeted Hybrid Imaging Probes by Chelator Scaffolding” (Bioconjugate chemistry, 2017).
Read-outs that look alike come from different tables or passages of the source.

What was measured:
[1] = physchem; type: physicochemical; conditions: buffer or solvent
Protocol: (§1) [^68Ga]Sulfo-Cy7-FSC-MG and [^68Ga]Sulfo-Cy7-FSC-RGD (6 MBq) were diluted with phosphate buffered saline to a concentration of 1 μM. Subsequently 50 μL of this solution was added to six Eppendorf tubes containing 450 μL PBS and 500 μL octanol. The mixture was vortexed (1400 rpm) at RT for 15 min using a MS 3 basic vortexer (IKA, Staufen, Germany) followed by centrifugation for 2 min at 4500 rpm. Aliquots of 100 μL of both phases were transferred to plastic vials, measured in the γ-counter and logD values were calculated. For stability testing, radiolabeled tracers were diluted with 450 μL fresh human serum and 450 μL PBS as control to a concentration of 2 μM followed by incubation at 37 °C. After 1, 2, and 4 h (n = 3) 50 μL aliquots were precipitated with acetonitrile (1:1) and centrifuged for 2 min at 14 × 10^3 rpm. The supernatant was analyzed by radio-RP-HPLC to evaluate for decomposition and corresponding chromatograms are shown in Supporting Information. For protein binding measurement aliquots were analyzed by size exclusion chromatography using MicroSpin G-50 Columns (Sephadex G-50, GE Healthcare, Vienna, Austria) in triplicates. First, the columns were centrifuged at 750 rcf for 1 min to remove the storage buffer. After adding 25 μL of incubation solution columns were centrifuged again for 2 min with 2000 rcf. Column and eluate were measured in the γ-counter and percentages of nonprotein bound radiolabeled peptide (column) and protein bound radiotracer (eluate) were calculated.

[2] = tested on: U-87MG (αvβ3 positive) xenograft bearing mice; conditions: mouse, in vivo, 1.5 h
Protocol: (§2) All animal experiments were conducted in accordance with regulations and guidelines of the Czech Animal Protection Act (No. 246/1992), and with the approval of the Czech Ministry of Education, Youth, and Sports (MSMT-22421/2013–12), and the institutional Animal Welfare Committee of the Faculty of Medicine and Dentistry of Palacky University in Olomouc. The studies were performed using female 8–10-week-old athymic BALB/c nude mice (Envigo, Horst, The Netherlands). The number of animals was reduced as much as possible (n = 3 per group and time point for all experiments) and retro-orbital (r.o.) tracer injection as well as small animal imaging was carried out under 2% isoflurane anesthesia (FORANE, Abbott Laboratories, Abbott Park, IL, USA) to minimize animal suffering.
(§3) Tumor xenografts were established near the front shoulder of mice by subcutaneous injection of 5 × 10^6 cells (U-87 MG) or 2 × 10^6 cells (A431-CCK2R) and the same amount of A431-mock cells as a control in 200 μL appropriate medium and Matrigel (1:1). The tumors were allowed to grow until they had reached a volume of 0.2 to 0.5 cm^3. To evaluate ex vivo biodistribution mice were injected with 1–2 MBq (0.05–0.14 nmol) of radiotracer per mouse and mice were sacrificed by cervical dislocation after 30 and 90 min for [^68Ga]Sulfo-Cy7-FSC-RGD and after 1 and 2 h in the case of [^68Ga]Sulfo-Cy7-FSC-MG. Tumors, blood, muscle tissue, and organs were extracted, weighed, and activity uptake of the samples was measured in the gamma counter. Results were expressed as percentage of injected dose per gram tissue (% ID/g). In vivo PET and CT images were acquired with an Albira PET/SPECT/CT small animal imaging system (Bruker Biospin Corporation, Wood-bridge, CT, USA). Xenograft bearing mice were injected with radiolabeled peptides in a dose of ~5 MBq corresponding to 1–2 μg (0.25–0.58 nmol) of peptide per mouse. Anaesthetized animals were positioned prone head first in the Albira system before the start of imaging. Static PET/CT imaging was carried out 30 and 90 min p.i. for [^68Ga]Sulfo-Cy7-FSC-RGD. Animals injected with [^68Ga]Sulfo-Cy7-FSC-MG were imaged 1 and 2 h p.i. A 10 min PET scan (axial FOV 148 mm) was performed, followed by a CT scan (axial FOV 65 mm, 45 kVp, 400 μA, at 400 projections). Scans were reconstructed with the Albira software (Bruker Biospin Corporation, Woodbridge, CT, USA) using the maximum likelihood expectation maximization (MLEM) and filtered backprojection (FBP) algorithms. After reconstruction, acquired data was viewed and analyzed with PMOD software (PMOD Technologies Ltd., Zurich, Switzerland). 3D images were obtained using VolView software (Kitware, Clifton Park, NY, USA). Near-infrared in vivo fluorescence imaging was performed with an In-Vivo MS FX PRO small animal imaging system (Bruker Biospin Corporation, Woodbridge, CT, USA). Sulfo-Cy7-FSC-MG and Sulfo-Cy7-FSC-RGD were injected in a dose of 0.25–0.58 nmol per mouse and after supine head first positioning, imaging was conducted in various time intervals up to 72 h p.i. An appropriate filter set (excitation = 730 nm and emission = 790 nm) was used for acquiring the Sulfo-Cy7-FSC-peptide - fluorescence in vivo. Identical illumination settings (acquisition time = 15 s, filters = 730/790 nm, f-stop = 2.8, field of view = 100 mm, and binning = 4 × 4) were used for acquiring all images, and fluorescence emission was normalized to photons/s/mm^2. Images were acquired and analyzed using Bruker MI SE software (Bruker Biospin Corporation, Woodbridge, CT, USA).

[3] = mouse, in vivo
Protocol: as §2, §3

[4] = tested on: M21 (αvβ3 positive) cells; assay: M21 internalization assay (radioligand); type: cell-based, human; conditions: for Cell uptake (internalized): M21 (αvβ3 positive); for membrane bound amount of activity: M21 cells
Protocol: (§4) Integrin αvβ3 positive (M21) and αvβ3 negative (M21-L) cells were diluted with incubation medium, i.e., corresponding growth medium containing 1% glutamine (m/v), 1% BSA (m/v), CaCl2 (1 mM), MgCl2 (1 mM), and MnCl2 (10 mM) to a concentration of 2.0 × 10^6 cells/ml. Aliquots of one milliliter were transferred to Eppendorf tubes and six technical replicates for each cell line were incubated for 1 h at 37 °C. Subsequently 50 μL of the radiolabeled ligand (1.2 nM [^68Ga]Sulfo-Cy7-FSC-RGD in PBS/0.5% BSA, approximately 2 × 10^4 cpm) were added and incubated at 37 °C for further 60 and 120 min, respectively. After incubation the tubes were centrifuged (2 min, 5000 rpm; Eppendorf Centrifuge 5424, Hamburg, Germany) and the supernatant was removed and collected. Hereafter the cells were washed twice with 1 mL ice-cold washing buffer (10 mM TRIS-buffered saline, pH 7.3) and the fractions were combined with the supernatant (wash fraction). To determine the membrane bound tracer amount cells were washed two times with 1 mL acetate buffer (20 mM, pH 4.5, 10 min at 37 °C) and the supernatant was collected. The residual cells were lysed by adding 1 mL of 2 M NaOH twice and collected in plastic vials (internalized fraction). The activity of all collected vials was measured in the γ-counter and compared to standard solution (50 μL radiotracer).

[5] = tested on: M21-L (αvβ3 negative) cells; assay: M21-L internalization assay (radioligand); type: cell-based, human; conditions: for Cell uptake (internalized): M21-L (αvβ3 negative); for unspecific membrane bound activity: M21-L cells
Protocol: as §4

[6] = tested on: mice bearing U-87MG tumor xenografts; assay: Static micro-PET/CT imaging, U-87MG xenografts; type: in vivo, mouse; conditions: static PET, 30 and 90 min p.i.
Protocol: All animal experiments were conducted in accordance with regulations and guidelines of the Czech Animal Protection Act (No. 246/1992), and with the approval of the Czech Ministry of Education, Youth, and Sports (MSMT-22421/2013–12), and the institutional Animal Welfare Committee of the Faculty of Medicine and Dentistry of Palacky University in Olomouc. The studies were performed using female 8–10-week-old athymic BALB/c nude mice (Envigo, Horst, The Netherlands). […]
Tumor xenografts were established near the front shoulder of mice by subcutaneous injection of 5 × 10^6 cells (U-87 MG) or 2 × 10^6 cells (A431-CCK2R) and the same amount of A431-mock cells as a control in 200 μL appropriate medium and Matrigel (1:1). […] Tumors, blood, muscle tissue, and organs were extracted, weighed, and activity uptake of the samples was measured in the gamma counter. Results were expressed as percentage of injected dose per gram tissue (% ID/g). […] After reconstruction, acquired data was viewed and analyzed with PMOD software (PMOD Technologies Ltd., Zurich, Switzerland). […] Near-infrared in vivo fluorescence imaging was performed with an In-Vivo MS FX PRO small animal imaging system (Bruker Biospin Corporation, Woodbridge, CT, USA). […] An appropriate filter set (excitation = 730 nm and emission = 790 nm) was used for acquiring the Sulfo-Cy7-FSC-peptide - fluorescence in vivo. […]

[7] = in vitro; type: in vitro ADME, human
Protocol: as §1, with “First, the columns were centrifuged at 750 rcf for 1 min to remove the storage buffer. After adding 25 μL of incubation solution columns were centrifuged again for 2 min with 2000 rcf.” left out

[8] = type: physicochemical; conditions: pH 7.4
Protocol: as §1, with “First, the columns were centrifuged at 750 rcf for 1 min to remove the storage buffer. After adding 25 μL of incubation solution columns were centrifuged again for 2 min with 2000 rcf.” left out

[9] = 87 mg, accumulation in tumor tissue

## C/C1=C/C(=O)N(O)CCC[C@H](NC(=O)CCN2C(=O)CC(SCCOCCOCCOCCOCCC(=O)NCCCC[C@@H]3NC(=O)[C@@H](Cc4ccccc4)NC(=O)[C@H](CC(=O)O)NC(=O)CNC(=O)[C@H](CCCNC(=N)N)NC3=O)C2=O)C(=O)OCC/C(C)=C\C(=O)N(O)CCC[C@H](NC(=O)CCN2C(=O)CC(SCCOCCOCCOCCOCCC(=O)NCCCC[C@@H]3NC(=O)[C@@H](Cc4ccccc4)NC(=O)[C@H](CC(=O)O)NC(=O)CNC(=O)[C@H](CCCNC(=N)N)NC3=O)C2=O)C(=O)OCC/C(C)=C\C(=O)N(O)CCC[C@H](NC(=O)CCCCC[N+]2=C(C=CC3=CC(=CC=C4N(C)c5ccc(S(=O)(=O)[O-])cc5C4(C)C)CCC3)C(C)(C)c3cc(S(=O)(=O)O)ccc32)C(=O)OCC1 (stereo partly drawn) [[^68Ga]Sulfo-Cy7-FSC-RGD, metal not drawn]
[1]
  remaining at 1 h, 2 μM: 95.7 ± 0.1%
  remaining at 2 h, 2 μM: 94.7 ± 0.6%
  remaining at 4 h, 2 μM: 94.4 ± 0.3%
[2]
  kidney retention: 57.3 ± 4.6 % ID/g
[3]; [9]
  tissue uptake at 0.5 h: 10.1 ± 0.8 %ID/g
  tissue uptake at 1.5 h: 7.5 ± 0.8 %ID/g
[3]; blood
  tissue uptake at 0.5 h: 4 ± 0.4 %ID/g
  tissue uptake at 1.5 h: 1.3 ± 0.2 %ID/g
[3]; kidney retention
  tissue uptake at 1.5 h: 54.8 ± 1.1 %ID/g
[4]; 1 h
  Cell uptake (internalized): 2.45 ± 0.36%
  membrane bound amount of activity: 1.09 ± 0.23%
[4]; 2 h
  Cell uptake (internalized): 4.41 ± 1.17%
  membrane bound amount of activity: 1.79 ± 0.59%
[5]; 1 h
  Cell uptake (internalized): 0.43 ± 0.25%
  unspecific membrane bound activity: 0.29 ± 0.12%
[5]; 2 h
  Cell uptake (internalized): 0.71 ± 0.66%
  unspecific membrane bound activity: 0.80 ± 0.62%
[5]; M21-L vs M21, 1 and 2 h
  cell uptake on αvβ3 negative cells relative to αvβ3 positive cells (reduced to): approximately 1/6
[6]
  PET tumor visualization: tumor was visualized clearly
[7]
  Binding to serum proteins: approximately 20%
[8]
  logD: -2.3 ± 0.16
